How the values of data set [1] were obtained:
Stability of the molecule was tested
a) by boiling it in water at 100° C. for 30 minutes.
b) by immersion in 50% acetic acid at room temperature during one night, and
c) by immersion in 0.1M HCl in the same conditions.
The samples were consequently assayed with the elastase inhibition assay, as were blancs without inhibitor.

Data set [2] concerns the target T1, elastase (Boehringer, 1027891) (Sus scrofa, UniProt P00772).
T1 construct: purchased Boehringer 1027891
In words: Elastase inhibition assay (chromogenic substrate SAAAP, 405 nm). In kind it is biochemical. The settings on record: for specific (elastase) activity: IU = quantity reducing hydrolysis of SAAAP with 1 μmol/min at pH 8.3 and 25° C.; for inhibition of elastase activity: SAAAP substrate, 25° C., 30 minutes. On the procedure: 2. Prior lyophilized base material underwent solubility tests after resuspension of the base material in 1) 0.1M Acetic Acid, 2) 50% Acetic Acid and 3) 0.1M Ammoniumbicarbonate and after centrifugation of the various suspensions, supernatants and pellets (after resuspension). Thereafter these were tested on the presence of protein by analytical sequence analysis (Edman degradation with automated sequenator Applied Biosystems, Model 477A) (Edman, 1956; Ilse & Edman, 1963), by applying protocolls, reagentia, chemicals and materials from Applied Biosystems (Warrington, UK and Foster City, Calif., USA) (Hewick, et al, 1981).It was investigated if biologic activity included anti-elastase as the described "auto-antibiotic effect" of A. hydrophila. Therefore, tests on inhibition of elastase activity were executed with dried samples of 20 μl of supernatant and resuspension of pellet of the base material on elastase (Boehringer) and SAAAP (Fluka) as chromogenic substrate, and 0.1 M Tris/HCl pH 8.2 as assay buffer. Based on the results obtained with the different solutions, and the inhibition of elastase, it was decided to use 0.1 M Hac as solution for the lyophilized base material and thereafter as eluens for gel filtration.
The principle of the assay resides in inhibition of elastase (Boehringer, 1027891) activity on the chromogenic substrate SAAAP (Fluka, nr. 85975) as measured at 405 nm spectophotometrically by monitoring release of the p-nitro-aniline group during substrate digestion.
Assay buffer: 0.1M Tris/HCl pH 8.2, 1M NaCl.
Elastase: 40 μg/ml in H2 O.
Substrate: 1.0 mM SAAAP in H2 O.
Glacial Acetic Acid 50%: diluted in H2 O.
Reaction in tubes (Eppendorf), containing 100 μl assay buffer, 50 μl sample elastase inhibitor, 50 μl elastase solution was started by addition of SAAAP (25 μl, 1 mM) and incubated at 25° C. for 30 minutes. Thereafter the reaction was stopped by addition of 25 μl 50% Glacial Acetic Acid. The Absorbance of released p-nitroaniline was read at 405 nm.
International units (IU) are defined as that quantity which reduces the enzymatic hydrolysis of SAAAP with 1 μmol/min at pH 8.3 and 25° C.

For data set [3], the system named is Trypsin. In words: Trypsin inhibition assay (BAPNA). In kind it is biochemical. The settings on record: for trypsin inhibition: BAPNA, 37° C. The method, then:
An assay was developed for determination of the activity of this Trypsin inhibitor. In analogy with the elastase inhibition assay the preparation of the solution was as follows:
Trypsin, Type II-S soybean trypsin inhibitor (Sigma T 9128) and BAPNA (Sigma B 3279). This was further optimized to: trypsin solution: 120 μg/ml; BAPNA solution 10 mM; Trypsin inhibitor 100 μg/ml and incubation at 37° C. All other details were equal with the elastase inhibition assay.
(§1) Elastase inhibitory activity of Fahsin was measured by inhibition of the release of the p-nitroanilide group from the synthetic substrate N-succinyl-(Ala) 3-p-nitroanilide (SAAAP) (Calbiochem), catalyzed by pancreatic elastase and human neutrophil elastase respectively. Chymotrypsin inhibition activity of Fahsin was measured by the use of the synthetic substrate S-2586 (Kabi Vitrum). […] of Fahsin was measured by the use of the synthetic substrate S-2238 (Kabi Vitrum). pepsin activity of Fahsin was measured by the use of a haemoglobin substrate. Trypsin inhibition activity was determined using the BAPNA assay. Plasmin inhibition activity of Fahsin was related with the Trypsin inhibition activity and measured by the use of the chromogenic substrate D-Val-Leusyl-Lys-pNA (Othodiagnostics).

Data set [4] has as its target elastase (Boehringer, 1027891).
Data set [5] concerns the target elastase (Boehringer, 1027891). This is another data set of the same source.
For another data set, the target named is plasmin (Homo sapiens, UniProt P00747). Briefly: Plasmin inhibition (chromogenic substrate D-Val-Leusyl-Lys-pNA). The format is biochemical. On the procedure:
as §1

Data set [6] concerns the target trypsin.

Like-named read-outs stand apart in the source and are kept apart here. Non-standard residues stand in square brackets, D forms with d. Residues, ends and D or L forms follow the SMILES beside them. No end group written: not given here. Abu = CC[C@H](N)C(=O)O

T1 sequence (P00772 27-266): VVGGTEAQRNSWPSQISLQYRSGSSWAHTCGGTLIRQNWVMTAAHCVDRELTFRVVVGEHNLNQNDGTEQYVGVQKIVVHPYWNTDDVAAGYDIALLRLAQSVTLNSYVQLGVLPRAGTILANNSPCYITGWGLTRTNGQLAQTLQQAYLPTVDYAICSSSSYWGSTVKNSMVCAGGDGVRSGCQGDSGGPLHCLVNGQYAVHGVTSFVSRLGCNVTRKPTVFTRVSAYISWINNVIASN
Chain of plasmin (P00747 581-810 limits assumed, species assumed): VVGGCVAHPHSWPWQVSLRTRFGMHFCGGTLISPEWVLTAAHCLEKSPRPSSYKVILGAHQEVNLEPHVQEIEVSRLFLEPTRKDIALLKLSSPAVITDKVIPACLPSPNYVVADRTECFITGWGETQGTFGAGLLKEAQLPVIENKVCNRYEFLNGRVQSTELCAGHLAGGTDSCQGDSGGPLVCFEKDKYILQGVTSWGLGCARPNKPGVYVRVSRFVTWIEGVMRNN
Chain of plasmin (P00747 97-580 partner limits assumed, species assumed): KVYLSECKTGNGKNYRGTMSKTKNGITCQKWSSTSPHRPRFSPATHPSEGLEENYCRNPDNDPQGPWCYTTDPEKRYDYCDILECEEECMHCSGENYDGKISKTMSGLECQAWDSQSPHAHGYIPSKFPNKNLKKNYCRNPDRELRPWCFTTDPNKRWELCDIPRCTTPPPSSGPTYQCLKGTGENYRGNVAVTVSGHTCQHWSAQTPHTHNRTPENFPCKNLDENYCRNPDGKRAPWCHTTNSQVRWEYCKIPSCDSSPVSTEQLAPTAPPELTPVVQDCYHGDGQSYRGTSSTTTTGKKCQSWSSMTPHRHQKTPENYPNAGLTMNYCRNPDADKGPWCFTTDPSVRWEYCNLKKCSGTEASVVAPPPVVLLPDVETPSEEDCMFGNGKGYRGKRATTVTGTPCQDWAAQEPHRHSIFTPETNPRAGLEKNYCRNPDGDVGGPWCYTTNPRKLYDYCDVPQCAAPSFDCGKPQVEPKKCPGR

Take “DDNCGGKVCSKGQLCHDGHCECTPIRCLIFCPNGFAVDENGCELPCSCKHQ (cysteine pairing not given here) [peak 8]”: the “stability: elastase inhibiting activity after treatment” value in data set [1] (0.1M HCl at room temperature during one night), in data set [1] (50% acetic acid at room temperature during one night) and in data set [1] (boiling in water at 100° C. for 30 minutes) was “no significant decrease of inhibiting activity” each time. In addition, in data set [2], the “specific (elastase) activity” value amounted to 1.7 IU/mg. In addition, the “inhibition of elastase activity” value in data set [2] is “showed inhibition of elastase”.
As for “peak 7: single molecule isoform from Limnatis nilotica, 5494.4 D, partial sequence in b92, elastase inhibitor (DDDCGGQVCSKGQLCHDGHCECTPIRCLIYCPNFVDE)”, in data set [2], the “specific (elastase) activity” value came to 1.2 IU/mg and the “inhibition of elastase activity” value is recorded as “showed inhibition of elastase”.
Consider `CC[C@H](NC(=O)[C@H](CCCNC(=N)N)NC(=O)[C@@H](NC(=O)[C@@H]1CCCN1C(=O)[C@@H](NC(C)=O)[C@@H](C)O)[C@@H](C)CC)C(=O)N[C@@H](CC(C)C)C(=O)N[C@H](C(=O)N[C@@H](Cc1ccccc1)C(=O)N[C@@H](CC)C(=O)N1CCC[C@H]1C(=O)N[C@@H](CC(N)=O)C(=O)NCC(=O)N[C@@H](Cc1ccccc1)C(=O)N[C@@H](C)C(=O)N[C@H](C(=O)N[C@@H](CC(=O)O)C(N)=O)C(C)C)[C@@H](C)CC` [Synthetic peptide I, N-Acetyl-TPIRAbuLIFAbuPNGFAVD-amide] (Ac-TPIR[Abu]LIF[Abu]PNGFAVD-NH2), for which the “inhibition of elastase activity” value in data set [2] is on record as “dose-dependent inhibition of elastase activity”. The “specific effectivity (elastase inhibition), factor less than the native molecule” value in data set [2] (relative to native molecule) was ~5,000.
Turning to `CC[C@H](NC(=O)[C@H](CCCNC(=N)N)NC(=O)[C@@H](NC(=O)[C@@H]1CCCN1C(=O)[C@@H](NC(C)=O)[C@@H](C)O)[C@@H](C)CC)C(=O)N[C@@H](CCCNC(=N)N)C(=O)N[C@H](C(=O)N[C@@H](Cc1ccc(O)cc1)C(=O)N[C@@H](CC)C(=O)N1CCC[C@H]1C(=O)N[C@@H](CCCCN)C(=O)NCC(=O)N[C@@H](Cc1ccccc1)C(=O)N[C@@H](CCC(=O)O)C(=O)N[C@H](C(=O)N[C@@H](CC(=O)O)C(N)=O)C(C)C)[C@@H](C)CC` [Synthetic peptide II, N-Acetyl-TPIRAbuRIYAbuPKGFEVD-amide] (Ac-TPIR[Abu]RIY[Abu]PKGFEVD-NH2), the trypsin inhibition entry in the data set on Trypsin [3] is “dose-dependent inhibition of trypsin activity”. For the same molecule, the “specific effectivity (trypsin inhibition), factor less than the native molecule” value in the data set with Trypsin [3] (relative to native molecule) is on record as ~1,500.
As to DDDCGGQVCSKGQLCHDGHCECTPIRCLIYCPNFVDE [FAHSIN E 1], in data set [4], the specific (elastase) activity, inhibition of SAAAP hydrolysis was found to be 1.2 IU/mg.

B1: Synthetic linear peptide N-Acetyl-TPIRAbuLIFAbuPNGFAVD-amide (I) (peptide)
peptide: Ac-TPIR[Abu]LIF[Abu]PNGFAVD-NH2
SMILES: CC[C@H](NC(=O)[C@H](CCCNC(=N)N)NC(=O)[C@@H](NC(=O)[C@@H]1CCCN1C(=O)[C@@H](NC(C)=O)[C@@H](C)O)[C@@H](C)CC)C(=O)N[C@@H](CC(C)C)C(=O)N[C@H](C(=O)N[C@@H](Cc1ccccc1)C(=O)N[C@@H](CC)C(=O)N1CCC[C@H]1C(=O)N[C@@H](CC(N)=O)C(=O)NCC(=O)N[C@@H](Cc1ccccc1)C(=O)N[C@@H](C)C(=O)N[C@H](C(=O)N[C@@H](CC(=O)O)C(N)=O)C(C)C)[C@@H](C)CC
As to B1, the specific effectivity against the native molecule in data set [5] stood at 5000 factor less.

B2: peak 9: isoform found to be a mixture of two molecules, 5385.5 and 5454.1 D, partial sequence in b93 (protein)
chain 1: DDDCGGKVCSKGQLCVDGHCECTPIRCLIYCPNGFAVENGC
chain 2: DGNCGGQVCSKGQLCVDGQCKCTPIRCLIYCPNGFAVENGC
As for B2, in data set [2], the “specific (elastase) activity” value came to 0.95 IU/mg and the “inhibition of elastase activity” value is “showed inhibition of elastase”.

B3: peak 5: 1:1 mixture of 2 peptides, 5377.2 and 5435.5 Dalton, SEQ ID NO:5 or 6, trypsin inhibitor (protein)
chain 1: DDDCGGQVCSKGQLCVDGQCKCTPIRCRIYCPKGFEVDENGCELPCTCKQ
chain 2: DGNCGGQVCSKGQLCVDGQCKCTPIRCRIYCPKGFEVDENGCELPCTCKQ
B3: the inhibition of plasmin result with plasmin is given as “strongly active”. Further, the trypsin inhibition entry in the data set on Trypsin [3] (listed as Fahsin T 1-2) is “strongly active”. The trypsin inhibition entry with Trypsin [3] (listed as Fraction 5) was “strong trypsin inhibition”. The “trypsin inhibitory activity compared with the fractions corresponding to peaks 7, 8 and/or 9” value in the data set on Trypsin [3] (ratio to peaks 7, 8 and/or 9) is on record as “at least twenty times higher”. Further, in data set [2], the “specific (elastase) activity” value is on record as “less than 0,06 IU/mg” and the “inhibition of elastase activity” value is listed as “did not show anti-elastase activity”.

B4: Synthetic linear peptide N-Acetyl-TPIRAbuRIYAbuPKGFEVD-amide (II) (peptide)
peptide: Ac-TPIR[Abu]RIY[Abu]PKGFEVD-NH2
SMILES: CC[C@H](NC(=O)[C@H](CCCNC(=N)N)NC(=O)[C@@H](NC(=O)[C@@H]1CCCN1C(=O)[C@@H](NC(C)=O)[C@@H](C)O)[C@@H](C)CC)C(=O)N[C@@H](CCCNC(=N)N)C(=O)N[C@H](C(=O)N[C@@H](Cc1ccc(O)cc1)C(=O)N[C@@H](CC)C(=O)N1CCC[C@H]1C(=O)N[C@@H](CCCCN)C(=O)NCC(=O)N[C@@H](Cc1ccccc1)C(=O)N[C@@H](CCC(=O)O)C(=O)N[C@H](C(=O)N[C@@H](CC(=O)O)C(N)=O)C(C)C)[C@@H](C)CC
In the data set with trypsin [6], B4 gave a specific effectivity against the native molecule of 1500 factor less.

The values above are taken from patent publication US6239106A, “Family of protease inhibitors, and other biologic active substances” (Clodica, S.A., priority 1994, dated 2001).
